In assay [1] the target is nectin-1 C-terminal 10mer peptide, N-terminally FITC-conjugated. The assay can be described thus: fluorescence polarisation.
In assay [2] the target is JAM-A C-terminal 10mer peptide, N-terminally FITC-conjugated. Briefly: fluorescence polarisation.
Assay [3] concerns the target JAM-A C-terminal 10mer peptide, N-terminally biotinylated. Briefly: BLI. A general note: In BLI a coated tip is dipped into the sample, and binding shifts an interference pattern.
In assay [4] the target is nectin-1 C-terminal 10mer peptide, N-terminally biotinylated. Briefly: BLI.

Consider one molecule from publication doi:10.1101/2023.09.24.559210.

B1: human afadin PDZ domain (domain or fragment)
chain: IITVTLKKQNGMGLSIVAAKGAGQDKLGIYVKSVVKGGAADVDGRLAAGDQLLSVDGRSLVGLSQERAAELMTRTSSVVTLEVAKQG
The term Kd denotes the free concentration of one partner at which half of the binding sites on the other are occupied at equilibrium, for simple one-to-one binding. Lower therefore signals tighter binding. B1: the Kd was found to be 3 µM in assay [1], 5 µM in assay [2], 5 µM in assay [3] and 3 µM in assay [4]. Also, the bond lifetime in assay [3] was 0.65 s; in assay [4] it was 1.2 s.
